Test results as given in patent publication US9884910B2, “Anti-PDGF-C antibodies” (ThromboGenics NV, priority 2012, dated 2018).

B1: 5A2: murine monoclonal anti-PDGF-C antibody, IgG2b κ; VL SEQ ID NO:15, VH SEQ ID NO:19 (antibody, listed as Mus musculus, V domains shown)
VH: EVQLVESGGDLVKPGGSLKLSCAASGFTFSNYGMSWVRQTPDKRLEWVATIGSGGHYTYYPDSVKGRFTISRDSAKSTLYLQMSSLKSEDTAIYYCARQAPLWDCSDYWGQGTTLTVSS
VL: DVLMTQTPLSLPVSLGDQASISCRSNQSIVHSNGDTYLEWYLQKPGQSPKLLIYKVSNRFSGVPDRFSGSGSGTDFTLKISRVEAEDLGVYYCFQGSHVPPTFGGGTKLEIK
B2: 16B1: murine monoclonal anti-PDGF-C antibody, IgG1 κ; VL SEQ ID NO:15, VH SEQ ID NO:18 (antibody, listed as Mus musculus, V domains shown)
VH: EVQLVESGGDLVKPGGSLKLSCAASGFTFSNYGMSWVRQTPDKRLEWVATIGSGGSYTYYPDSVKGRFTISRDSAKNTLYLQMSSLKSEDTAMYYCARQAPLWDYSDYWGQGTTLTVSS
VL: DVLMTQTPLSLPVSLGDQASISCRSNQSIVHSNGDTYLEWYLQKPGQSPKLLIYKVSNRFSGVPDRFSGSGSGTDFTLKISRVEAEDLGVYYCFQGSHVPPTFGGGTKLEIK
B3: 5H7: murine monoclonal anti-PDGF-C antibody, IgG1 κ; VL SEQ ID NO:16, VH SEQ ID NO:20 (antibody, listed as Mus musculus, V domains shown)
VH: EVQLVESGGDLVKPGGSLKLSCAASGFTFSSYGMSWVRQTPDKRLEWVATIGYGGSFTYYPDSMKGRFTISRDNAKNTLFLQMSSLKSEDTAIYYCVRQAPLWDYFDYWGQGTTLTVSS
VL: DVLMTQTPLSLPVSLGDQASISCRSSQTIVHSDGTTYLEWYLQKAGQSPKLLIYKVSNRFSGVPDRFSGSGSGTDFTLKISRVEAEDLGVYYCFQGSHVPPTFGGGTKLEIK
B4: 2D3: murine monoclonal anti-PDGF-C antibody, IgG1 κ; VL SEQ ID NO:14, VH SEQ ID NO:18 (antibody, listed as Mus musculus, V domains shown)
VH: EVQLVESGGDLVKPGGSLKLSCAASGFTFSNYGMSWVRQTPDKRLEWVATIGSGGSYTYYPDSVKGRFTISRDSAKNTLYLQMSSLKSEDTAMYYCARQAPLWDYSDYWGQGTTLTVSS
VL: DVLMTQTPLSLPVSLGDQASISCRSNQTIVHSNGDTYLEWYLQKPGQSPNLLIYKVSNRFSGVPDRFSGSGSGTDFTLKISRVEAEDLGVYYCFQGSHVPPTFGGGTKLEIK
B5: Humanized mAb 5H7: humanized 5H7; VH SEQ ID NO:102, VL SEQ ID NO:103 (antibody, V domains shown)
VH: EVQLLESGGGLVQPGGSLRLSCAASGFTFSSYGMSWVRQTPGKGLEWVATIGYGGSFTYYPDSMKGRFTISRDNAKNTLYLQMNSLRAEDTAVYYCARQAPLWDYFDYWGQGTLLTVSS
VL: DVVMTQSPLSLPVTLGQPASISCRSSQTIVHSDGTTYLEWYLQKPGQSPRLLIYKVSNRFSGVPDRFSGSGSGTDFTLKISRVEAEDVGVYYCFQGSHVPPTFGQGTKLEIK
modifications: humanized variable heavy chain murine monoclonal antibody 5H7; humanized variable light chain murine monoclonal antibody 5H7

Assays:
[1] = target: T1, 15-mer, overlapping peptides covering the entire human PDGF-C molecule (Homo sapiens, UniProt Q9NRA1); test: Epitope mapping ELISA on 15-mer overlapping peptides; type: binding; conditions: peptide coated 10 μg/mL, antibody 1 μg/mL
T1 construct: host or cells: chemical synthesis
Description: The binding of anti-PDGF-C antibodies to 15-mer, overlapping peptides covering the entire human PDGF-C molecule was assessed by ELISA. Antibodies included in this analysis are the five antibodies potently inhibiting activation of PDGF-Rα by PDGF-C, i.e. monoclonal antibodies 2D3, 5A2, 5H7, 16B1 and 29H1. Further included are two antibodies capable of binding to PDGF-C, but not or very poorly inhibiting activation of PDGF-Rα by PDGF-C, i.e. monoclonal antibodies 12E5 (IgG1) and 19F12 (IgG2b) (see Example 4). […] For all antibodies, it was confirmed that they bind to human PDGF-C and binding to full-length human PDGF-C was for all antibodies tested more efficient than binding to any of the peptides identified as described hereafter.
The indicated peptides where synthesized in an N-terminally biotinylated form and coated onto a neutravidin plate (Thermo Scientific, Cat. 15127) at a concentration of 10 μg/mL. The antibodies listed in the table were incubated in each well at a concentration of 1 μg/mL and, following washing, were then detected in a standard ELISA format using an appropriate, HRP-labeled secondary antibody (goat anti-mouse IgG-HRP for all antibodies except sc-80290, and goat anti-rat IgG-HRP for sc-80290). Each antibody was tested at least twice, and up to 4 times. A “+” in the table indicate that a signal to background >3 was found and confirmed at least once. The background signal was measured in the absence of peptide using both the primary and the secondary antibodies. Antibodies sc-80290 and MAB1560 were tested only against peptides 42-63 since this represents the fraction of the protein that was used as an immunogen.

[2] = tested on: glioblastoma tumor, U118; test: Antitumor effect against U118 glioblastoma xenograft; type: in vivo; conditions: for TGI (%) Day 53: day 53 post-tumor implantation; for TGI (%) Day 60: day 60 post-tumor implantation; for TGI (%) Day 63: day 63 post-tumor implantation; for TGI (%) Day 67: day 67 post-tumor implantation
Description: For the evaluation of anti-tumor activity of the antibodies, animals were weighed and tumors measured 2 times weekly using a caliper. Tumor weights were calculated using the formula mass (mg)=[length (mm)×width (mm)^2]/2. Antitumor activity evaluation was done at the single dose of 20 mg/kg. A dosage producing a 20% body weight loss (bwl) or 10% or more drug deaths, was considered an excessively toxic dosage. Animal body weights included the tumor weights. The primary efficacy end point is the tumor growth inhibition (% TGI). Changes in tumor volume for each treated (T) and control (C) are calculated for each tumor by subtracting the tumor volume on the day of first treatment (staging day) from the tumor volume on the specified observation day. The median ΔT is calculated for the treated group and the median ΔC is calculated for the control group. Then the ratio ΔT/ΔC is calculated and expressed as a percentage of TGI: ΔT=Tt−T0 ΔC=Ct−C0 % TGI=[1−(median(Tt−T0)/median(Ct−C0)]*100
The antitumor effect of 29H1, 5A2 and 16B1 was evaluated against a measurable glioblastoma tumor, U118, which express both PDGF-C and its receptor, PDGFRa, S.C. implanted in female SCID Beige mice. Control group was treated with PBS alone. The antibodies were administered by an intraperitoneal (IP) injection, and treatment started on day 28 post-tumor implantation and was performed twice a week.

[3] = target: T2, PDGFRα activation by human PDGF-C (Homo sapiens, UniProt Q9NRA1); test: PathHunter PDGFRα receptor tyrosine kinase assay in U2OS PDGFRα PLCG1 cells; type: cell-based
T2 construct: the growth factor domain of PDGF-C (amino acids 235-345 of human PDGF-C); purchased R&D Systems 1687-CC/CF; host or cells: ligand added to U2OS PDGFRα PLCG1 cells (DiscoveRx, assay 93-0823C3) that express the transfected receptor
Description: To evaluate the inhibitory activity of anti-human PDGF-C antibodies on PDGFRα activation by human PDGF-C, the PathHunter® receptor tyrosine kinase assay for PDGFRα (93-0823C3) from DiscoveRx® was used. […] A small complementing fragment of β-gal, the Prolink™ tag (PK) has been fused recombinantly to the intracellular C-terminus of the receptor tyrosine kinase PDGFRα. The larger portion of β-gal, termed EA for enzyme acceptor, is co-expressed with an SH2 (Src Homology 2) phosphotyrosine binding domain. Ligand-induced activation of the receptor results in dimerization and intra-cellular cross-phosphorylation of the receptor. Subsequently, the SH2 domain specifically binds the phosphorylated receptor resulting in the complementation of the two β-gal fragments PK and EA, and formation of a functional β-gal enzyme. Following addition of a β-gal substrate, an easily detectable chemiluminescent signal is produced which is directly correlated to receptor activation. The LumiLITE™ microplate reader is fully compatible with all EFC-based assays of DiscoveRx® and is therefore used.
For the PathHunter® PDGFRα, assay, U2OS PDGFRα, PLCG1 (phospholipase Cγ as the source of the SH2 domain) cells from DiscoveRx® were used. Frozen cells were stored in liquid nitrogen. Upon thawing, cells were resuspended in pre-warmed thawing medium (i.e. culture medium without the selection antibiotics Geneticin and Hygromycin B). After 48 hours of culture in a 5% CO2 incubator at 37° C., thawing medium was replaced by culture medium (MEM Eagle 1× (30-2003 from Invitrogen), 10% fetal bovine serum (SH30071.03 from Perbio Science), 1× Penicillin-Streptomycin-Glutamine (10378-016 from Invitrogen), 250 μg/ml Hygromycin B (10687-010 from Invitrogen), 500 μg/ml Geneticin (10131-035 from Invitrogen)). Once confluence was reached, cells were passaged with a ⅓ dilution every 2-3 days using Accutase (L11-007 from PAA). Cells were maintained in a non-confluent state during routine culture.
In the PathHunter® PDGFRα, assay, the U2OS PDGFRα, PLCG1 cells from DiscoveRx® cultured up to 10 passages were used. Cells were seeded at 20.000 cells in 100 μl per well in 96-well white culture-treated microplates with clear bottom (3610 from Corning). The PathHunter® Cell Plating 16 Reagent (93-0563R16 from DiscoveRx®) was employed as seeding medium. Following 24 hours of culture in 5% CO2 at 37° C., 25 μl of a 5-fold concentrated agonist solution in Cell Plating 16 Reagent was used per well to stimulate the cells. Recombinant human PDGF-C from R&D Systems (1687-CC/CF; Va1235-Gly345) was applied as agonist. After 3 hours incubation at room temperature, 60 μl of PathHunter® detection reagent (93-0001 from DiscoveRx®; 1 part Galacton Star® Substrate, 5 parts Emerald II™ Solution, and 19 parts of PathHunter® Cell Assay Buffer) was added. Cells were placed at room temperature and in the dark for another hour before luminescence was measured with the LumiLITE™ microplate reader. With GraphPad Prism® software, a non-linear regression analysis was performed using the obtained luminescent values in order to generate a sigmoidal agonist dose-response curve with variable slope. The EC50 (i.e. half maximal effective concentration) and EC80 value (i.e. the effective concentration that leads to 80% of the maximal response) for human PDGF-C was calculated.
To evaluate the inhibitory activity of anti-human PDGF-C antibodies on PDGFRα, activation by human PDGF-C, equal volumes of […] concentrated solutions of anti-human PDGF-C antibodies and the EC80 of human PDGF-C, prepared in Cell Plating 16 Reagent, were mixed and the assay was performed as described above. As positive controls, an anti-human PDGF-C polyclonal goat IgG antibody (AF1560 from R&D Systems) and recombinant human PDGFRα, Fc chimera (6765-PR from R&D Systems) were employed. […]

[4] = peptide binds secondary antibody
[5] = 20 mg/kg IP twice a week from day 28

T2 sequence (Q9NRA1 235-345): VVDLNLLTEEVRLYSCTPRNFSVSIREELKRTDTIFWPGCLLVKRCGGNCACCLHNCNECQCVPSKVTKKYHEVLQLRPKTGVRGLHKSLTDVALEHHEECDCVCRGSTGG

| Molecule | binding to peptide No 58 (SEQ ID NO: 96) VLQLRPKTGVRGLHK [1] | TGI (%) Day 53 [2, 5] [%] | TGI (%) Day 60 [2, 5] [%] | TGI (%) Day 63 [2, 5] [%] | TGI (%) Day 67 [2, 5] [%] | also measured |
| --- | --- | --- | --- | --- | --- | --- |
| B1 | + (A “+” in the table indicate that a signal to background >3 was found and confirmed at least once) | 55.7 | 38.5 | 43.4 | 42.0 | binding to peptide No 9 (SEQ ID NO: 47) FPHTYPRNTVLVWRL [1, 4]: + (A “+” in the table indicate that a signal to background >3 was found and confirmed at least once); binding to peptide No 27 (SEQ ID NO: 65) EPGFCIHYNIVMPQF [1, 4]: + (A “+” in the table indicate that a signal to background >3 was found and confirmed at least once); tolerability / body weight loss ([2]; 20 mg/kg IP twice a week): well-tolerated with no tumor body weight loss; TGI (%) Day 56 ([2]; 20 mg/kg IP twice a week from day 28, day 56 post-tumor implantation): 58.5% |
| B2 |  | 8.25 | 27.6 | 11.5 | 11.9 | tumor growth block (in words) ([2]; ip, at the different time points evaluated): failed to block tumor growth |
| B3 | + (A “+” in the table indicate that a signal to background >3 was found and confirmed at least once) |  |  |  |  |  |
| B4 | + (A “+” in the table indicate that a signal to background >3 was found and confirmed at least once) |  |  |  |  |  |
| B5 |  |  |  |  |  | inhibition of the PDGFRα activation by human PDGF-C (in words) [3]: apparently not inhibiting activation of PDGFR-α; IC50 value (nM) ([3]; humanized antibodies, * average of 3 measurements): nad |
